Test results reported in patent US11311577B2, “Coordinating gene expression using RNA destabilizing elements” (Chimera Bioengineering, Inc., priority 2018, dated 2022).

Test system: T-cells
Test: Removal of microRNA binding sites from an RDE: expression from constructs, GFP in T-cells
Assay type: cell-based
Settings: MIR186 micro-RNA sites removed from the 3′-UTR of IL-2
Text: The AU-rich element from the 3′-UTR of IL-2 has mir-181 and mir 186 microRNA binding sites. Different combinations of the microRNA sites were removed from the 3′-UTR of IL-2. When the MIR186 micro-RNA sites were removed from the 3′-UTR of IL-2 the dynamic range of expression from constructs with this UTR increased 50 fold. The modified IL-2, 3′-UTR replaces CTT in the sequence with GAA and is shown below (the new GAA is underlined in the sequence):
Different combinations of the micro-RNA sites were removed from the 3′UTR of IFNg and tested for increased expression. When the mir125 micro-RNA sites were removed from the 3′-UTR of IFN-γ the expression rate from constructs with this UTR is increased.
Expression of GFP in T-cells, transfected with the RDE-GFP plus the microRNA sites, is compared to expression of GFP in T-cells with the RDE-GFP in which the microRNA sites have been removed, following activation with CD3/CD28 beads for 24 hours. The removal of the microRNA sites increased expression of the GFP by a factor of between 2-5 after 24 hours, relative to the cells with microRNA sites.

B1: modified IL-2, 3′-UTR: IL-2 3′-UTR with MIR186 micro-RNA sites removed, CTT replaced with GAA (SEQ ID NO: 22) (nucleic acid, listed as Homo sapiens)
DNA: TAATTAAGTGCTTCCCACTTAAAACATATCAGGCCTTCTATTTATTTAAATATTTAAATTTTATATTTATTGTTGAATGTATGGTTTGCTACCTATTGTAACTATTATTCTTAATCTTAAAACTATAAATATGGATCTTTTATGATTGAATTTGTAAGCCCTAGGGGCTCTAAAATGGTTTCACTTATTTATCCCAAAATATTTATTATTATGTTGAATGTTAAATATAGTATCTATGTAGATTGGTTAGTAAAACTATTTAATAAATTTGATAAATATAAA
  increase of dynamic range of expression: 50 fold
